# Results published in publication PMC3347520, “Relative Comparison of Catalytic Characteristics of Human Foamy Virus and HIV-1 Integrases”.
# Target: HFV integrase (HFV IN) (Human foamy virus, UniProt P14350 752-1143)
# Experiment: EMSA; 5 mM Mg2+
# Conditions: protein: recombinant; chain copies: 4; blunt
binder,measurement,value
U5-HFV duplex (U5B-HFV/U5A-HFV) (dsDNA) DNA 1: ATACAAAATTCCATGACAAT DNA 2: ATTGTCATGGAATTTTGTAT,Kd,17.3 nM
